Measurements: CN101123983A (MEDIMMUNE INC, dated 2008)
Where a chain is given by its changes, count along the chain named.

B1: 11H1 (Fab, V domains shown)
VH: QVQLLQSGAEVKKPGASVKVPCKASGYTFTSYAMSWVRQAPGQGLEWMGWINTNTGNPTYAQGFTGRFVFSLDTSVSTAYLQISSLKAEDTAVYYCARVRLTVYGDGMDVWGQGTLVTVSS
VL: EIVLTQSPATLSVSPGERATLSCRASQSVSSNLAWYQQKPGQAPRLLIYGASTRATGIPDRFSASGSGTDFTLTISRVEPEDFAVYYCQQYGSSWTFGQGTKVEIK
notes: Fab with human gamma1 CH1 and human kappa constant domain; also called GEA44衍生物11H1
B2: 6B7 (Fab, V domains shown)
VH: B1 VH with Y32R, L101F
VL: B1 VL with L33P, S93P
B3: 3C6 (Fab, V domains shown)
VH: B1 VH with Y32R
VL: B1 VL with L33P, A34P
B4: 1B10 (Fab, V domains shown)
VH: B1 VH with Y32R, L101F
VL: B1 VL with L33P, R54W, S93P
B5: 1G11 (Fab, V domains shown)
VH: B1 VH with Y32R, L101F
VL: B1 VL with A34P, A55P, S93P
B6: 1D11 (Fab, V domains shown)
VH: B1 VH with Y32R, L101T, G107N
VL: B1 VL with A34P, S93P
B7: 1A4 (Fab, V domains shown)
VH: B1 VH with Y32R, F64S, L101F
VL: B1 VL with L33P, S93P
B8: 3A12 (Fab, V domains shown)
VH: B1 VH with Y32R, L101F
VL: B1 VL with R54W, S93P

target: T1, 人EphA4-His融合蛋白 (human EphA4 extracellular domain fused to a histidine tag) (human, UniProt P54764 20-547); assay: secondary screen: activity ELISA on coated human EphA4-His, normalised by Fab quantitation ELISA, against parent Fab20
T1 construct: also called rhuEphA4-His; not shown: histidine tag
T1 sequence (P54764 20-547): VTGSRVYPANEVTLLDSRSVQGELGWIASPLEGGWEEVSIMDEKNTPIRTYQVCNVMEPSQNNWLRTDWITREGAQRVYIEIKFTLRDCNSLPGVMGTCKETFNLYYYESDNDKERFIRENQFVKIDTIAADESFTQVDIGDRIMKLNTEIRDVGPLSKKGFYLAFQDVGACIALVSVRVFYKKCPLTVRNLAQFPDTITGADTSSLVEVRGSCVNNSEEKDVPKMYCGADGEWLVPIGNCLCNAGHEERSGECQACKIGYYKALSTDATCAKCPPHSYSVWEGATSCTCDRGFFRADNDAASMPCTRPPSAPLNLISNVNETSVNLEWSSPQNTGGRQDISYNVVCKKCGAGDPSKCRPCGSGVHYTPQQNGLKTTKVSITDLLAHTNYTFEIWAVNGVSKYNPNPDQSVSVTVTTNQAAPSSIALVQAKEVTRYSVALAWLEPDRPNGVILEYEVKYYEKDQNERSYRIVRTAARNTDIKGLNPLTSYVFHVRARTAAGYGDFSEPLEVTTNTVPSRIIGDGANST

Row | Binder | binding result
1 | B1 | binds

target: T1, 人EphA4-His融合蛋白 (human EphA4 …); assay: secondary screen of combination variant Fabs: activity ELISA on coated human EphA4-His, normalised by Fab quantitation ELISA

Row | Binder | binding result
2 | B2 | binds
3 | B3 | binds
4 | B4 | binds
5 | B5 | binds
6 | B6 | binds
7 | B7 | binds
8 | B8 | binds
